Measurements as given in US20120316071A1 (published 2012).
Residue numbers refer to the chain shown, from its start. Names may count otherwise. Values belong to the binder of their own block, whether it stands above or below them.

What was measured:
[1] = biological target: T1, Recombinant Human DLL4 (R&D Systems Cat#1506-D4/CF) (human, UniProt Q9NR61 27-524); assay: SPR
T1 construct: bought recombinant protein; also called rHuman DLL4; delta-like protein 4

[2] = biological target: T1, Recombinant Human DLL4 (R&D Systems …); assay: affinity quoted with the Multispot ECL titration; method of the number not stated there
[3] = biological target: T2, rHuman Notch-1/Fc Chimera, CF (R&D Systems Cat#3647-TK) (human, UniProt P46531 19-526); assay: ECL multispot binding assay (MSD), antigen spotted on plate, 10 nM Fab
T2 construct: Bought recombinant protein; Fc part of the bought chimera not given

[4] = biological target: T3, rHuman EGF R/Fc Chimera, CF (R&D Systems Cat#344-ER) (human, UniProt P00533 25-645); assay: as above
T3 construct: Bought recombinant protein; also called epidermal growth factor receptor; Fc part of the bought chimera not given

[5] = biological target: T4, rHuman ErbB2/Fc Chimera, CF (R&D Systems Cat#1129-ER) (human, UniProt P04626 23-652); assay: as above
T4 construct: Bought recombinant protein; also called human epidermal growth factor 2 receptor; Fc part of the bought chimera not given

[6] = biological target: T5, rHuman P-Cadherin/Fc Chimera, CF (R&D Systems Cat#861-PC) (human, UniProt P22223 108-654); assay: as above
T5 construct: Bought recombinant protein; Fc part of the bought chimera not given

[7] = biological target: T6, rHuman IGF-1 sR, CF (R&D Systems Cat#391-GR) (human, UniProt P08069 31-932); assay: as above
T6 construct: also called insulin-like growth factor-1 soluble receptor

[8] = biological target: T7, Recombinant Human DLL4 (R&D Systems Cat#1506-D4/CF) (human, UniProt Q9NR61 27-524); assay: as above
T7 construct: Bought recombinant protein; also called delta-like protein 4; rHuman DLL4

[9] = biological target: T8, rHuman CD44/Fc Chimera, CF (R&D Systems Cat#3660-CD) (human, UniProt P16070 21-220); assay: as above
T8 construct: Bought recombinant protein; Fc part of the bought chimera not given

[10] = biological target: T9, rHuman HGF R/c-MET/Fc Chimera, CF (R&D Systems Cat#358-MT/CF) (human, UniProt P08581 25-932); assay: as above
T9 construct: Bought recombinant protein; also called HGF R/Fc; hepatocyte growth factor receptor; Fc part of the bought chimera not given

[11] = biological target: T10, rHuman Erythropoietin R/Fc Chimera, CF (R&D Systems Cat#963-ER) (human, UniProt P19235 25-250); assay: as above
T10 construct: Bought recombinant protein; also called EPO R; EPO R/Fc; Fc part of the bought chimera not given
T10 sequence (looked up): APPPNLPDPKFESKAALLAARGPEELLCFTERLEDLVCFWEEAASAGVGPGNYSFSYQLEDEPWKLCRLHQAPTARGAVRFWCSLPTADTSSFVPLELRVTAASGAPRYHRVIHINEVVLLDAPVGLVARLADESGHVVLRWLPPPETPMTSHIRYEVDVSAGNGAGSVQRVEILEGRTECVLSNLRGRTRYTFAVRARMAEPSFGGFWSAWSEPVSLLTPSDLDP

[12] = biological target: T11, Recombinant Human DLL4 (R&D Systems Cat#1506-D4/CF) (human, UniProt Q9NR61 27-524); assay: ECL Multispot (MSD), antigen spotted, Fab 5.00 (column head 'Fab [µM]'); blank 268
T11 construct: Bought recombinant protein; also called delta-like protein 4; rHuman DLL4

[13] = biological target: T12, rHuman ErbB2/Fc Chimera, CF (R&D Systems Cat#1129-ER) (human, UniProt P04626 23-652); assay: as above
T12 construct: Bought Fc chimera; also called human epidermal growth factor 2 receptor; Fc part of the bought chimera not given

[14] = biological target: T13, rHuman P-Cadherin/Fc Chimera, CF (R&D Systems Cat#861-PC) (human, UniProt P22223 108-654); assay: as above
T13 construct: Bought Fc chimera; Fc part of the bought chimera not given

[15] = biological target: T14, rHuman HGF R/c-MET/Fc Chimera, CF (R&D Systems Cat#358-MT/CF) (human, UniProt P08581 25-932); assay: as above
T14 construct: Bought Fc chimera; also called HGF R/Fc; hepatocyte growth factor receptor; Fc part of the bought chimera not given

[16] = biological target: T15, rHuman IGF-1 sR, CF (R&D Systems Cat#391-GR) (human, UniProt P08069 31-932); assay: as above
T15 construct: Bought soluble receptor; also called insulin-like growth factor-1 soluble receptor

[17] = biological target: T11, Recombinant Human DLL4 (R&D Systems …); assay: ECL Multispot (MSD), antigen spotted, Fab 500.00 (column head 'Fab [µM]'); blank 495
[18] = biological target: T12, rHuman ErbB2/Fc Chimera, CF (R&D …); assay: as above
[19] = biological target: T13, rHuman P-Cadherin/Fc Chimera, CF (R&D …); assay: as above
[20] = biological target: T14, rHuman HGF R/c-MET/Fc Chimera, CF (R&D …); assay: as above
[21] = biological target: T15, rHuman IGF-1 sR, CF (R&D Systems …); assay: as above
[22] = biological target: T11, Recombinant Human DLL4 (R&D Systems …); assay: ELISA, DLL4 coated, 100 nM Fab, absorbance at 450 nm minus noise
[23] = biological target: T11, Recombinant Human DLL4 (R&D Systems …); assay: ECL Multispot (MSD), DLL4 spotted, 10 nM Fab
[24] = biological target: T11, Recombinant Human DLL4 (R&D Systems …); assay: ECL Multispot (MSD), antigen spotted, Fab 50.00 (column head 'Fab [µM]'); blank 223
[25] = biological target: T12, rHuman ErbB2/Fc Chimera, CF (R&D …); assay: as above
[26] = biological target: T13, rHuman P-Cadherin/Fc Chimera, CF (R&D …); assay: as above
[27] = biological target: T14, rHuman HGF R/c-MET/Fc Chimera, CF (R&D …); assay: as above
[28] = biological target: T15, rHuman IGF-1 sR, CF (R&D Systems …); assay: as above
[29] = biological target: T11, Recombinant Human DLL4 (R&D Systems …); assay: ECL Multispot (MSD), antigen spotted, Fab 0.50 (column head 'Fab [µM]'); blank 206
[30] = biological target: T12, rHuman ErbB2/Fc Chimera, CF (R&D …); assay: as above
[31] = biological target: T13, rHuman P-Cadherin/Fc Chimera, CF (R&D …); assay: as above
[32] = biological target: T14, rHuman HGF R/c-MET/Fc Chimera, CF (R&D …); assay: as above
[33] = biological target: T15, rHuman IGF-1 sR, CF (R&D Systems …); assay: as above

- fold affinity against the parent Fab [1]: 10 fold
- apparent Kd (pooled screen) [2]: 70 nM
B1: Fab VH1-46_IGHD6-6*01_IGHJ1*01 S102A/S103P/S104F/H111F & L6_IGKJ1*01 (Fab, V domains shown)
VH: QVQLVQSGAEVKKPGASVKVSCKASGYTFTSYYMHWVRQAPGQGLEWMGIINPSGGSTSYAQKFQGRVTMTRDTSTSTVYMELSSLRSEDTAVYYCAREEYAPFSAEYFQFWGQGTLVTVSS
VL: not shown
notes: Fab; also called H:APFF & L:wt; APFF mutant

- ECL signal [3]: 333
- ECL signal [4]: 358
- ECL signal [5]: 312
- ECL signal [6]: 339
- ECL signal [7]: 273
- ECL signal [8]: 4500
- ECL signal [9]: 346
- ECL signal [10]: 280
- ECL signal [11]: 382
B2: Fab VH1-46_IGHD6-6*01_IGHJ1*01 S102A/S103P/S104F/H111F S59A & L6_IGKJ1*01 (Fab, V domains shown)
VH: B1 VH with S59A
VL: not shown
notes: Tested as a Fab made in E. coli; also called APFF S59A

- ECL signal [12]: 75800
- ECL signal [13]: 286
- ECL signal [14]: 280
- ECL signal [15]: 258
- ECL signal [16]: 323
- ECL signal [17]: 27200
- ECL signal [18]: 712
- ECL signal [19]: 785
- ECL signal [20]: 723
- ECL signal [21]: 736
- ELISA (Signal-Noise) [22]: 0.78
- ECL Signal/Noise [23]: 202
- ECL signal [24]: 79300
- ECL signal [25]: 503
- ECL signal [26]: 453
- ECL signal [27]: 380
- ECL signal [28]: 485
- ECL signal [29]: 7540
- ECL signal [30]: 222
- ECL signal [31]: 201
- ECL signal [32]: 215
- ECL signal [33]: 184
B3: Fab VH1-46_IGHD6-6*01_IGHJ1*01 S102A/S103P/S104F/H111F (APFF) & L6_IGKJ1*01 (Fab, V domains shown)
VH: B1 VH
VL: not shown
notes: Tested as Fab expressed in E. coli: heavy chain from plasmid A (CH1 with His6 and Flag tags), kappa light chain from plasmid C (CL kappa); also called H:APFF & L:wt
